Measured values taken from patent US20140017242A1, “ANTI-BRADYKININ B2 RECEPTOR (BKB2R) MONOCLONAL ANTIBODY” (Diamedica, Inc., priority 2010, published 2014).
Where no end group is shown, it is not given here.

Experiments:
ZDF fa/fa rats [1] = test: 21-day ZDF fa/fa study: oral glucose tolerance test (blood glucose, plasma insulin); assay type: in vivo, rat; details: 10 mg/kg p.o. 1×/daily, day 21
Description: (§1) Animals. Male ZDF fa/fa rats were obtained from CRL (Kingston, N.Y.). Upon arrival, rats were seven weeks of age. The rats were housed individually per cage in a room with a photo cycle of 12 hours of light and 12 hours of dark and an ambient temperature of 70-72° F. and fed on regular rodent diet and water ad libitum. At the age of eleven weeks, rats were divided into six groups (Table 5) of eight rats per group based on fasting blood glucose levels. A sub-group of four rats per group was maintained in parallel to the main groups and was dosed similarly for twenty-one days for a hyperinsulinemic-euglycemic clamp study. […]
(§2) An oral glucose tolerance test (OGTT) was performed on Day 0, 7, 14 and 21 for each group of the study. Plasma samples were collected at each time point during OGTT to also measure insulin levels. Body weight, food and water intake were measured twice a week. Blood pressure and heart rates were monitored on Day 0, 7, 14 and 21 using a non-invasive tail cuff method (with five readings per rat taken and then averaged). Fasting serum samples were collected on Day 0, 7, 14 and 21 before OGTT for determination of triglyceride and total cholesterol level. Urine samples were collected on Day 7 and 14 for the determination of glycosuria. Glycated (Glycosylated) hemoglobin (HbA1c) was measured at the end of the study. Assay kits for these studies were as presented in Table 6, and were used according to the suppliers' instructions.
OGTTs were performed on Day 0, 7, 14 and Day 21. Rats were fasted overnight and fasted blood glucose levels were measured (t=0 min), and then each rat was given a single 1.5 ml dose of glucose solution (2 g/kg body weight of D-(+)-glucose (G7528, Sigma) solubilized in deionized water) administered by oral gavage. […] At each time point of an OGGT approximately 50-60 μl of blood were collected and processed for plasma to measure insulin levels.
Plasma Collection. On days 0, 7, 14 and 21 during an OGTT test, blood samples were collected from the rats at each time point (0, 15, 30, 60, 90 and 120 minutes) into tubes containing lithium heparin (BD Biosciences, USA) by tail nip and kept on ice. The samples were then centrifuged at 4° C. for plasma separation and the plasma supernatants were transferred into 0.5 ml Eppendorf™ tubes by pipette and stored at −80° C. for the analysis of insulin levels.

ZDF fa/fa rats [2] = test: 21-day ZDF fa/fa study: fasting blood glucose; assay type: in vivo, rat; details: 10 mg/kg p.o. 1×/daily, day 21; baseline 116.5+/−25.8
Description: as §1, §2
Fasting blood glucose levels were measured on Day 0, 7, 14 and 21.
(§3) The mean change in fasting blood glucose (mg/dL), serum cholesterol (mg/dL) and systolic blood pressure (mm Hg) from baseline (Day 0) to Day 21 was compared between the high-dose (5F12G1, 0.2 mg/kg) and negative control (MG2b-57, 0.2 mg/kg) groups using an analysis of covariance to adjust for baseline levels. The mean HbA1c percentage in high-dose (5F12G1, 0.2 mg/kg) rats was compared to the mean HbA1c percentage for negative control (MG2b-57, 0.2 mg/kg) rats using an unequal-variance, independent two-sample t-test. A significance level of a=0.05 was used for all tests, and all analyses were conducted using SAS statistical software (vs. 9.2, Cary, N.C., U.S.A.).

ZDF fa/fa rats [3] = test: 21-day ZDF fa/fa study: serum total cholesterol and triglyceride; assay type: in vivo, rat; details: 10 mg/kg p.o. 1×/daily, day 21
Description: as §1, §2, §3

ZDF fa/fa rats [4] = test: 21-day ZDF fa/fa study: glycated hemoglobin HbA1c; assay type: in vivo, rat; details: 10 mg/kg p.o. 1×/daily, day 21
Description: as §1, §2
The mean change in fasting blood glucose (mg/dL), serum cholesterol (mg/dL) and systolic blood pressure (mm Hg) from baseline ([…]) and negative control (MG2b-57, 0.2 mg/kg) groups using an analysis of covariance to adjust for baseline levels. […] A significance level of a=0.05 was used for all tests, and all analyses were conducted using SAS statistical software (vs. 9.2, Cary, N.C., U.S.A.).

ZDF fa/fa rats [5] = test: 21-day ZDF fa/fa study: urinary glucose (glycosuria); assay type: in vivo, rat; details: 10 mg/kg p.o. 1×/daily, day 14
[6] = molecular target: T1, human BKB2R-derived epitope peptide (SEQ ID NO:73), PEG-biotin (human, also: PEG-biotin, site not given here); test: BLI (Octet), peptide-PEG-biotin on streptavidin sensor, antibody 250 nM
T1 construct: also called immunogenic human BKB2R peptide fragment
T1 peptide: KEYSDEGHNVTAC
Description: (§4) For the Octet study, antibodies were analyzed by kinetic titration of the antibodies. Antibodies were prepared in kinetic buffer (0.001 M phosphate buffered saline (NaCl 0.0138 M; KCl-0.00027 M); pH 7.4, at 25° C., 0.1 mg/ml BSA, 0.002% Tween and 0.005% Sodium Azide) followed by 1:2 serial dilutions.
(§5) Sensor Prep: Streptavidin biosensors (FortéBio Inc, Menlo Park, Calif.) were coated by incubation in a solution containing a peptide ([…]-PEG-biotin) (Biosyn, Lewisville, Tex.) at 50 μg/ml (300 seconds/1000 rpm shaking). 96 well half-volume plates were used for testing. 90 μl of sample was plated per well. Sensors were allowed to equilibrate to baseline in kinetic buffer (60 seconds/1000 rpm). The sensors were then placed into the various antibody dilutions to allow binding (association) to the probe for 500 seconds/1000 rpm, and measurements were taken. The sensors were then moved into kinetic buffer without antibody for dissociation (500 seconds/1000 rpm), and measurements were taken. Octet system software calculated kinetic constants for on rate/off rate/affinity.
(§6) For test humanized monoclonal antibodies, the highest concentration used was 500 nM followed by 1:2 dilutions. Each concentration was tested twice. The HC and LC represented the mouse original 5F12G1 VH and VL sequences.

[7] = molecular target: T1, human BKB2R-derived epitope peptide …; test: BLI (Octet), peptide-PEG-biotin on streptavidin sensor, antibody 500 nM
Description: as §4, §5, §6

[8] = molecular target: T2, human BKB2R-derived epitope peptide, SE ID NO:73 (Homo sapiens, UniProt P30411); test: ForteBio Octet binding kinetics to the BKB2R epitope peptide
T2 construct: purchased Biosyn, Lewisville, Tex
Description: Proteins corresponding to all combinations of humanized or chimeric (5F12G1 VH and VL on human IgG2 backbone) antibodies were tested for binding to the human BKB2R-derived epitope peptide, SE ID NO:73.
A ForteBio (Menlo Park, Calif., USA) Octet® platform was used to analyze the binding affinities and binding characteristics of the humanized monoclonal antibodies to the peptide epitope (SEQ ID NO:73) and compared to the original mouse monoclonal 5F12G1. This platform employed label-free technology for measuring biomolecular interactions by optical analysis of the interference pattern of white light reflected from two surfaces: a layer of immobilized protein on the biosensor tip, and an internal reference layer. Any change in the number of molecules bound to the biosensor tip caused a shift in the interference pattern that was measured in real-time. Binding specificity, and rates of association and dissociation were monitored.
as §4, §5
[…] […] Each concentration was tested twice. The HC and LC represented the mouse original 5F12G1 VH and VL sequences.

ZDF fa/fa rats [9] = test: Oral glucose tolerance test in ZDF fa/fa rats, humanized mAbs; assay type: in vivo, rat; details: 0.2 mg/kg s.c.; order: H38/L39, H37/L38, L2/H2, H38/L38, H37/L37, H38/L38, H39/137 [sic], H39/L39, H37/L37, H39/L38, H37/L39, L1/H1
From the text: This example describes evaluation of mouse mAb 5F12G1 and its twelve humanized clones in Zucker Diabetic fatty (ZDF fa/fa) rats for effects on insulin sensitivity in animals. Zucker Diabetic Rats develop symptoms similar to type 2 diabetes and are genetically resistant to insulin. […] Therefore, the Zucker rat is a good model to test the ability of the monoclonal antibody to increase insulin sensitivity, especially in an OGTT.
Male ZDF fa/fa rats were obtained from Charles River (Kingston, ON). Upon arrival, rats were ten weeks of age. The rats were housed individually per cage in a room with a photo cycle of 12 hours of light and 12 hours of dark and an ambient temperature of 70-72° F. and fed on regular rodent diet and water ad libitum. After seven days of acclimatization, rats were grouped into fourteen groups of three rats per group (Table 10).
Oral Glucose Tolerance Test. An oral glucose tolerance test (OGTT) was performed on overnight fasted (16 hours) rats. Rats received subcutaneously administered humanized mAbs, mouse mAb 5F12G1 (positive control) and PBS (vehicle control) at a dose of 0.2 mg/kg body weight, thirty minutes prior to glucose administration. D-Glucose was prepared in distilled water and administered orally at 2 g/kg body weight. Blood glucose levels were measured before administration of humanized mAbs, 5F12G1 or vehicle (t=−30 minutes) and just before glucose loading (0 minute), and at timepoints of 30, 60, 90 and 120 minutes, using Accu-chek™ glucose meter.

N[C@@H](CC(=O)N1CCn2c(nnc2C(F)(F)F)C1)Cc1cc(F)c(F)cc1F [sitagliptin, reference compound]
AUC of blood glucose during OGTT (ZDF fa/fa rats [1]): 53765.75 ± 2281.45 mg/dL (min)
blood glucose level at 30 minutes of the OGTT (ZDF fa/fa rats [1]): 488 mg/dL
blood glucose level at the start of the OGTT (ZDF fa/fa rats [1]): 228 mg/dL
fasting insulin level (ZDF fa/fa rats [1]): 10 ± 3.5 ng/mL
insulin level at 15 minutes of the OGTT (ZDF fa/fa rats [1]): 15 ± 4 ng/mL
fasting blood glucose level (ZDF fa/fa rats [2]): 247 ± 14 mg/dL
serum cholesterol (ZDF fa/fa rats [3]): 170 ± 14 mg/dL
percent glycosylated hemoglobin A1c (HbA1c) (ZDF fa/fa rats [4]): 8.8+/−0.4%
urine glucose level (ZDF fa/fa rats [5]): elevated urine glucose

B1: chimeric/humanized anti-BKB2R antibody L2/HC (antibody, human IgG2, V domains shown)
VH: EVKLEESGGGLVQPGGSMKLSCVVSGFTFSDYWMSWVRHSPEMGLEWVAEIRLKSDNYATHYAESVKGRFTISRDDSKSRLYLQINSLRGEDTGIYYCTRDYYAMEYWGQGTSVTVSS
VL: DIVMTQSPLSLPVTPGEPASISCRSSQTIVHSNGKTYLEWYLQKPGQSPQLLIYKVSNRFSGVPDRFSGSGSGTEFTLKISRVEAEDVGVYYCFQASHVPYTFGQGTKLEIKR
notes: not shown: human IgG2 constant region
Kd [6]: 337 nM
Max Response [6]: 0.204
koff [6]: 0.732 s⁻¹
kon [6]: 2.17e+06 M⁻¹ s⁻¹
Kd [7]: 4530 nM
Max Response [7]: 0.143
koff [7]: 0.655 s⁻¹
kon [7]: 145000 M⁻¹ s⁻¹

B2: H38/L39: humanized anti-BKB2R mAb, heavy chain H38 (SEQ ID NO:6), light chain L39 (SEQ ID NO:12) (antibody, V domains shown)
VH: EVQLLESGGGLVQPGGSLKLSCAVSGFTFSDYWMSWVRQAPGKGLEWVSEIRLKSDNYATHYADSVKGRFTISRDDSKNTLYLQMNSLRAEDTAVYYCTRDYYAMEYWGQGTLVTVSS
VL: DVVMTQTPLSLSVTPGQPASISCKSSQTIVHSNGKTYLEWYLQKPGQSPQLLIYKVSNRFSGVPDRFSGSGSGTDFTLKISRVEAEDVGVYYCFQASHVPYTFGQGTKLEIK
modifications: Humanized H38 Heavy Chain Variable Region VH; Humanized L39 Light Chain Region VL
kdis ([8]; Conc. 500 nM): 106 s⁻¹
kon ([8]; Conc. 500 nM): 1.14e+09 M⁻¹ s⁻¹
binding compared with the original mouse monoclonal antibody ([8]; Octet, epitope peptide): stronger binding (lower KD)
order of effect on the decrease in AUC of blood glucose (ZDF fa/fa rats [9]): higher
